From patent publication US20230304010A1 (AADIGEN, published 2023)
Values joined by “and” are separate entries in the source; they are usually repeats but may differ in a detail not shown here. Equal entries are not always repeated.

Key:
SARS-CoV-2 Spike [1] = biological target: T1, SARS-CoV-2 Spike (SARS-CoV-2, UniProt P0DTC2 16-685)
SARS-CoV-2 Spike [2] = biological target: T1, SARS-CoV-2 Spike; assay: inhibitor screening kit, ADGN-106 nanoparticles (Example 6, section B)
SARS-CoV-2 Spike [3] = biological target: T1, SARS-CoV-2 Spike; assay: inhibitor screening kit, ADGN-106 nanoparticles (Example 6, section A)

| Binder | IC50 (SARS-CoV-2 Spike [1]) | fold more potent than SBP-1-ADGN-106/ADGN-106 complex (SARS-CoV-2 Spike [2]) [fold] | fold more potent than SBP-1 peptide/ADGN-106 complex (SARS-CoV-2 Spike [2]) [fold] | fold more potent than SBP-1-ADGN-106/ADGN-106 complex (SARS-CoV-2 Spike [3]) [fold] | fold more potent than SBP-1 peptide/ADGN-106 complex (SARS-CoV-2 Spike [3]) [fold] |
| --- | --- | --- | --- | --- | --- |
| Seq28 (LNCOV-20)/ADGN-106 nanoparticle complex (other) peptide 1: KTFLDKFNHEAEDLFPGPKWSAFLKEQSTLAQMYG peptide 2: LWRALWRLWRSLWRLLWK | 2.7 nM and 2.1 nM | 4 | 35 | 6 | 40 |
| Seq27 (LNCOV-27)/ADGN-106 nanoparticle complex (other) peptide 1: EQAKTFLDKFNHEAEDLFPKWSAFLKEQSTLAQMYG peptide 2: LWRALWRLWRSLWRLLWK | 1.8 nM and 1.1 nM | 4 | 35 | 6 | 40 |
